Data on 1 substance can be found in patent US6555107.

The assay has as its target human CXCR4 (human) (UniProt P61073). The experiment in a line: cell-based or functional assay.
Chain of UniProt P61073 (P61073 whole entry): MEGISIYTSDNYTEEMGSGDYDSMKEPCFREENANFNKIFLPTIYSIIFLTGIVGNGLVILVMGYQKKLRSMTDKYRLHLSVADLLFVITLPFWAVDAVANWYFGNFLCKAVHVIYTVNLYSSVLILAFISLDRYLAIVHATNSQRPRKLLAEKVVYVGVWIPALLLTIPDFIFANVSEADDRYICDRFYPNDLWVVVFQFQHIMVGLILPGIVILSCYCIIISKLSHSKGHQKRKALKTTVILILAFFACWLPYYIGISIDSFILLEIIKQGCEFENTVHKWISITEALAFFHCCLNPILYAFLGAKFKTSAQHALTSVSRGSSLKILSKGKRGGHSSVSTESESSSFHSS

In turn, “FIV envelope protein (product of the env gene of FIV clone 34TF10, Petaluma strain) (from UniProt P16090 1-856)” displayed an infectivity of replication-competent 34TF10 on CRFK.CXCR4 against CRFK cells (focal infectivity assay) of 8 fold and a titer of FIV Env-enveloped CTRZLb vector on CRFK.CXCR4 cells (transducing units/ml) of 360.
